The target of the test is human ACE2 extracellular domain (19-615) (human) (UniProt Q9BYF1). The experiment in a line: SPR. Background: In SPR one partner is held on a chip, and binding of the other changes the refractive index at the surface.

A word on the Kd: it is the equilibrium constant for the complex coming apart. Higher therefore signals lower affinity.

human ACE2 extracellular domain (19-615) (human), sequence (Q9BYF1 19-615): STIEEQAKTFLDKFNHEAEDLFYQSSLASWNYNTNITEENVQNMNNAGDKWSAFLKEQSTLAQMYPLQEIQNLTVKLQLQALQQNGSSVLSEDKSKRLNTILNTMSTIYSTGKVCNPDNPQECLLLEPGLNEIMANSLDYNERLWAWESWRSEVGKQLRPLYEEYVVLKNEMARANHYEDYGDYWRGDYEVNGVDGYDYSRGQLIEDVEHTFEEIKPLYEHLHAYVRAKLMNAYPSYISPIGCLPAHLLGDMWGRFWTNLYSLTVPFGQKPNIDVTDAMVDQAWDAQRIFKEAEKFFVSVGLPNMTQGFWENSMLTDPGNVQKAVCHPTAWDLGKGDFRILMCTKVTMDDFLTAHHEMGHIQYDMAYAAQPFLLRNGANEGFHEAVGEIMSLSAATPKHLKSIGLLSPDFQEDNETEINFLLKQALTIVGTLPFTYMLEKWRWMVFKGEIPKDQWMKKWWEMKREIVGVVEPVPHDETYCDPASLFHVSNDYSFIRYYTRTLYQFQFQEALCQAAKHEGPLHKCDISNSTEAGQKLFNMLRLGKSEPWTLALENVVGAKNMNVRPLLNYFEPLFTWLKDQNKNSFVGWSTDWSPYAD

“PCoV_GX RBD (331-524) (domain or fragment)” came in with a Kd of 2.7 nM.
